Test results published in patent US20230391872A1 (ANAPTYSBIO, published 2023).

Tests used:
[1] = biological target: T1, human BTLA on cells (stably transfected 293c18 cells; human peripheral blood T and B cells) (human, UniProt Q7Z6A9 31-289); assay: flow cytometry, DyLight 650-labeled 6G3 IgG4 on human peripheral blood CD4+ T cells
T1 construct: whole, on cells; the cells are named under assay; also called cell surface BTLA; full-length human BTLA
Experimental: PBMCs were washed and incubated at 2×10⁷ cells/ml in FACS buffer (PBS, 1% BSA, 0.02% sodium azide) with Human BD Fc Block (2.5 μg/1×10⁶ cells, BD Biosciences) and LIVE/DEAD® Fixable Yellow Dead Cell Stain (30 μl, ThermoFisher Scientific) for 10 minutes on ice. Cells were washed once in FACS buffer, resuspended in FACS buffer at 1×10⁷ cells/ml and the following phenotyping antibodies added: Alexa Fluor 488-anti-human CD3E clone SK7, Brilliant Violet 421-anti-human CD4 clone OKT4, Brilliant Violet 785-anti-human CD8 clone SK1, and Brilliant Violet 570-anti-human CD20 clone 2H7 (50 μl each; all from BioLegend, Inc.). […] Samples were washed twice in FACS buffer, resuspended in 150 μl/well FACS buffer, and analyzed for fluorescence on a NovoCyte Flow Cytometer (ACEA Biosciences, Inc.). Data were analyzed using NovoExpress Software (ACEA Biosciences, Inc.). Median fluorescence intensities of anti-BTLA or isotype staining on gated CD4⁺ T cells (FIG. 4), CD8⁺ T cells (FIG. 4), or CD20⁺ B cells (FIG. 4) were graphed and curves fit with log(agonist) vs. response (three parameters) least squares fit for EC₅₀ calculation in GraphPad Prism (GraphPad Software, Inc.).

[2] = biological target: T2, cynomolgus monkey BTLA on cells (stably transfected 293c18 clone 1G5); cynomolgus peripheral blood T and B … (cynomolgus monkey, UniProt A0A2K5W7M7 31-289); assay: flow cytometry (MFI) on 293c18 cells stably expressing cynomolgus monkey BTLA, goat anti-human kappa-PE detection, four-parameter fit [right panel (Cy BTLA 293c18 cells), EC50 box]
T2 construct: whole, on cells; also called cynomolgus monkey BTLA 293c18 cells
T2 sequence: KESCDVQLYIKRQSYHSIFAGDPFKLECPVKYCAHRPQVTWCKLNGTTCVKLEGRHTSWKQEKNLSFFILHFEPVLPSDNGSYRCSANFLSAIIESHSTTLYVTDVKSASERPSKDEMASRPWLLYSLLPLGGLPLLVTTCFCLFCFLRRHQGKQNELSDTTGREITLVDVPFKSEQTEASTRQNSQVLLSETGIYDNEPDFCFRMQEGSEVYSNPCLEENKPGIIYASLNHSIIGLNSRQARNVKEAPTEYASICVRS
Experimental: 293c18 cell clone 1E4 stably expressing human BTLA construct or clone 1G5 stably expressing cynomolgus monkey BTLA were harvested with Accutase solution (Millipore Sigma/Sigma-Aldrich) and washed once with Phosphate-Buffered Saline, 1% BSA. 293c18 cynomolgus monkey BTLA cells were loaded with the lipophilic carbocyanine dye, DiD (2 μM, 1,1′-dioctadecyl-3,3,3′,3′-tetramenthylindodicarbocyanine; ThermoFisher Scientific) by rocking gently for 10 minutes at room temperature. DiD-stained cells were washed in PBS, 1% BSA and equal amounts of human BTLA 293c18 cells and cynomolgus monkey BTLA 293c18-DiD-stained cells were mixed. Cells (2×10⁵ total cells/sample) were incubated with the indicated concentrations of purified 6G3 IgG4 (two production lots, APE10840.03 and APE10840.04 (H Chain SEQ ID NO: 144, L Chain SEQ ID NO: 174)) or human IgG4 isotype control antibody specific for hen egg lysozyme with gentle shaking for 10 minutes at 4° C. in FACS buffer (PBS, 1% BSA, 0.02% sodium azide). […] Cells were washed and resuspended in FACS buffer and analyzed for fluorescence on a BD FACSArray (BD Biosciences). DiD stained cells expressing cynomolgus monkey BTLA (FIG. 3) were analyzed for median fluorescence intensity (MFI) separately from cells expressing human BTLA (FIG. 3). […]

B1: 6G3 IgG4 anti-BTLA antibody (APE10840 / APE12839 / APE13308) (antibody, V domains shown)
VH: QVQLVQSGAEVKKPGSSVKVSCKASGYVFSTSWMNWVRQAPGQGLEWMGRIYPGDADTNYVGKFKGRVTITADKSTTTAYMELSSLRSEDTAVYFCAKSGTFNFGNYRWYFDVWGKGTTVTVSS
VL: AIQLTQSPSSLSASVGDRVTITCRVSENIYSHLAWYQQKPGKAPKLLIYAATNLALGVPSRFSGSGSGTDYTLTISSLQPEDFATYYCQLFWGPPLTFGGGTKVEIKR
notes: Humanized antibody from a mouse hybridoma, tested as human IgG4 (detected with anti-human kappa); Some assays used labelled lots (DyLight 650, AF647, biotin, DyL488); also called 6G3 antibody; APE10840.03
Q: B1 was tested. Which EC50 [1] did it give?
A: ~2.4 nM

Q: And the EC50 [2]?
A: 2.3 nM
